Assay results published in paper PMC3975076, “High-throughput binding characterization of RNA aptamer selections using a microplate-based multiplex microcolumn device”.

T1: UBLCP1 (UniProt Q8WVY7)
T1 sequence: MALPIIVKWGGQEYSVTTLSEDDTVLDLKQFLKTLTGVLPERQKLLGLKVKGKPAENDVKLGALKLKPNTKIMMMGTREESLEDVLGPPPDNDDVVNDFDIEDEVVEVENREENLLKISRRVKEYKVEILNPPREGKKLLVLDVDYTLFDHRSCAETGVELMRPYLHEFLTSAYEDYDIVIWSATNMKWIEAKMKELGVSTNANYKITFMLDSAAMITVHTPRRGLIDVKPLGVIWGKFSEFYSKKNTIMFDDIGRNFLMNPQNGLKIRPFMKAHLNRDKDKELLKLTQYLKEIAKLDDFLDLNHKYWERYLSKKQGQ

T2: NELF-E (Drosophila, UniProt P92204 1-280)
T2 sequence: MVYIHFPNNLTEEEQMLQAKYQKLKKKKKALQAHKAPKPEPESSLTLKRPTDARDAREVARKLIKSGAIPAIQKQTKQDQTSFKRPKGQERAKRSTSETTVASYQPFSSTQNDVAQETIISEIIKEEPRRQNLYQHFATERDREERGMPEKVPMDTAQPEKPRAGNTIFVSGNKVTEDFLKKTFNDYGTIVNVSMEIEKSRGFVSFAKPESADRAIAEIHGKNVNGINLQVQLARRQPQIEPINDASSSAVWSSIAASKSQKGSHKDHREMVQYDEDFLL

B1: NELFapt (structured_RNA)
RNA: GGGAAUGGAUCCACAUCUACGAAUUCCCAACGACUGCCGAGCGAGAUUACGCUUGAGCGCCCCACUGAGGAUGCCCACGGGCGAUUGGGGCACGGCUUCACUGCAGACUUGACGAAGCUU

Key:
UBLCP1 = molecular target: T1, UBLCP1; test: affinity microcolumn + qPCR; conditions: value is average over all 7 other targets; Binding buffer (composition, pH and temperature not in material) with 10 ug/mL yeast tRNA; serial: 4.75 nM N70 library + 50 pM each aptamer/BBS, 1 mL, protein …
GFP = GFP (UniProt P42212); test: affinity microcolumn + qPCR; conditions: GFP 0.6 ug/uL resin; serial; Binding buffer (composition, pH and temperature not in material) with 10 ug/mL yeast tRNA; serial: 4.75 nM N70 library + 50 pM each aptamer/BBS, 1 mL, protein …
NELF-E = molecular target: T2, NELF-E; test: affinity microcolumn + qPCR; NELF-E 0.6 ug/uL resin; serial; Binding buffer (composition, pH and temperature not in material) with 10 ug/mL yeast tRNA; serial: 4.75 nM N70 library + 50 pM each aptamer/BBS, 1 mL, protein 0.6 ug/uL resin; wash 3 mL at 300 uL/min; conditions: protein: recombinant; tags: His6

Row | Molecule | binding signal (fold enrichment over N70 library) (UBLCP1) | binding signal (fold enrichment over N70 library) (GFP) | binding signal (NELF-E)
1 | GGGAAUGGAUCCACAUCUACGAAUUCAAUCAAGUCCCCAGACUCAGCAACACUGGACAGCGAUAUGCAGAUAACCAAGACCAAUUCACUCCAGUUCACUGCAGACUUGACGAAGCUU [HSFapt] | 2 | – | –
2 | GGGAAUGGAUCCACAUCUACGAAUUCCCAACGACUGCCGAGCGAGAUUACGCUUGAGCGCCCCACUGAGGAUGCCCACGGGCGAUUGGGGCACGGCUUCACUGCAGACUUGACGAAGCUU [NELFapt] | 1.6 | – | –
3 | AGCUUCUGGACUGCGAUGGGAGCACGAAACGUCGUGGCGCAAUUGGGUGGGGAAAGUCCUUAAAAGAGGGCCACCACAGAAGCU [GFPapt (AP3-1)] | 0.6 | 750 | –
4 | B1 | – | – | 262 fold enrichment over N70 library
